Legend:
cHAD [1] = target: T1, cHAD (Caenorhabditis elegans, UniProt P34439); test: difference absorption spectroscopy of the ternary charge-transfer complex, […] nm; format: binding; details: 2 mM NAD+ with 2 mM acetoacetyl-CoA, 0.2 M citrate/phosphate pH 7.0, ambient temperature, 2 mg/ml protein; abortive ternary complex
T1 construct: gene F54C8.1; C-terminal GST tag cleaved; pEXS-CG vector, E. coli BL21(DE3)
T1 sequence (P34439 1-298): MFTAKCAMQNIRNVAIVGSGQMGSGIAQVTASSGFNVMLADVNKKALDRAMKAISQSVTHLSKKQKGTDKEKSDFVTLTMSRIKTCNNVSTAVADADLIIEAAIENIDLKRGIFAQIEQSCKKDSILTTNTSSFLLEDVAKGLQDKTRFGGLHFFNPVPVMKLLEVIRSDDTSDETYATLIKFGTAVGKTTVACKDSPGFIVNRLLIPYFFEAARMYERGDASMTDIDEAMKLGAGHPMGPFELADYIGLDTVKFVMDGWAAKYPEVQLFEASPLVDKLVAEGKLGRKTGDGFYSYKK

cHAD [2] = target: T2, cHAD (Caenorhabditis elegans, UniProt P34439, Y209A); test: Trp-NADH FRET titration, ex […] nm, em […] nm, Hill fit; format: binding; details: 10 mM citrate/phosphate pH 7.0, 150 mM NaCl, ambient temperature, 0.58 µM protein, 0-340 µM NADH
T2 construct: gene F54C8.1; C-terminal GST tag cleaved; pEXS-CG vector, E. coli BL21(DE3)
T2 sequence (P34439 1-298 Y209A): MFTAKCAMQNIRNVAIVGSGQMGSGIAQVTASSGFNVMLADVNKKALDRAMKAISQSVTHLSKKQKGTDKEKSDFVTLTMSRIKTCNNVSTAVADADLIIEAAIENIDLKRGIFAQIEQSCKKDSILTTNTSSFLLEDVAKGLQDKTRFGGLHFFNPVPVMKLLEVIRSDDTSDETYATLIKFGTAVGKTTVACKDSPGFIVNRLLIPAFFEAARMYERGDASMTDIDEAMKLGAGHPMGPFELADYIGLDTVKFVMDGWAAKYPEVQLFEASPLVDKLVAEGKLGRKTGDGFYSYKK

purified protein = substrate: CC(=O)CC(=O)SCCNC(=O)CCNC(=O)[C@H](O)C(C)(C)COP(=O)(O)OP(=O)(O)OC[C@H]1O[C@@H](n2cnc3c(N)ncnc32)[C@H](O)[C@@H]1OP(=O)(O)O; test: purified protein; format: biochemical, Caenorhabditis elegans; details: 100 µM NADH (saturating), 0.1 M citrate/phosphate pH 7.0, 0.1 mM dithiothreitol, 298 K, 23 nM protein, AACoA 30-70 µM, 25.0 °C
[3] = target: the molecule itself; test: SEC-MALS; SEC-LS/UV/RI; WTC-030S5 column, 20 mM MES pH 6.0, 100 mM sodium chloride; 100 µg protein injected, 0.5 ml/min
[4] = target: the molecule itself; test: cross-linking; EGS, protein:EGS 1:50, on ice 40 min; protein diluted to 2 mg/ml in 0.2 M Na2HPO4, 0.1 M citrate pH 7.0; SDS-PAGE

Molecule	difference absorption spectroscopy of the ternary charge-transfer complex, 412 n (cHAD [1])	Trp-NADH FRET titration, ex 270 nm, em 460 nm, Hill fit (cHAD [2])	Km (purified protein)	Vmax (purified protein)	kcat (purified protein)	kcat/Km (purified protein)	stoichiometry N [3]	binding result [4]
NC(=O)c1ccc[n+]([C@@H]2O[C@H](COP(=O)(O)OP(=O)(O)OC[C@H]3O[C@@H](n4cnc5c(N)ncnc54)[C@H](O)[C@@H]3O)[C@@H](O)[C@H]2O)c1 [NAD^+]	difference spectroscopy of cHAD·NAD^+·AACoA ternary complex							
NC(=O)C1=CN([C@@H]2O[C@H](COP(=O)(O)OP(=O)(O)OC[C@H]3O[C@@H](n4cnc5c(N)ncnc54)[C@H](O)[C@@H]3O)[C@@H](O)[C@H]2O)C=CC1 [NADH]		Wild type and Y209A mutant cHAD show exactly the same number of Hill coefficient						
3-hydroxyacyl-CoA dehydrogenase from C. elegans, wild type (enzyme, Caenorhabditis elegans, 3-hydroxyacyl-CoA dehydrogenase (cHAD), Caenorhabditis elegans, WormBase WBGene00010035, GenBank CAA80153.1; N-terminal domain 9-194, loop 195-201 and C-terminal domain 202-297 described in the structure; vector pEXS-CG (derived from pET-22b(+)); also called cHAD; wild type cHAD; not shown: GST, C-terminal, cleaved) MFTAKCAMQNIRNVAIVGSGQMGSGIAQVTASSGFNVMLADVNKKALDRAMKAISQSVTHLSKKQKGTDKEKSDFVTLTMSRIKTCNNVSTAVADADLIIEAAIENIDLKRGIFAQIEQSCKKDSILTTNTSSFLLEDVAKGLQDKTRFGGLHFFNPVPVMKLLEVIRSDDTSDETYATLIKFGTAVGKTTVACKDSPGFIVNRLLIPYFFEAARMYERGDASMTDIDEAMKLGAGHPMGPFELADYIGLDTVKFVMDGWAAKYPEVQLFEASPLVDKLVAEGKLGRKTGDGFYSYKK			72.0 ± 13.4 µM	78 µmol/min/mg	45 s⁻¹	600000 M⁻¹ s⁻¹	2	
3-hydroxyacyl-CoA dehydrogenase from C. elegans, R204A/Y209A mutant (enzyme, Caenorhabditis elegans, 3-hydroxyacyl-CoA dehydrogenase (cHAD), Caenorhabditis elegans, WormBase WBGene00010035, GenBank CAA80153.1; as m1 with R204A and Y209A; Made by overlapping PCR from the wild type plasmid, ligated into pEXS-CG (BamHI, EcoRI); also called cHAD R204A/Y209A; source: E. coli BL21 (DE3), purified (same procedure as the wild type); not shown: GST, C-terminal, cleaved) MFTAKCAMQNIRNVAIVGSGQMGSGIAQVTASSGFNVMLADVNKKALDRAMKAISQSVTHLSKKQKGTDKEKSDFVTLTMSRIKTCNNVSTAVADADLIIEAAIENIDLKRGIFAQIEQSCKKDSILTTNTSSFLLEDVAKGLQDKTRFGGLHFFNPVPVMKLLEVIRSDDTSDETYATLIKFGTAVGKTTVACKDSPGFIVNALLIPAFFEAARMYERGDASMTDIDEAMKLGAGHPMGPFELADYIGLDTVKFVMDGWAAKYPEVQLFEASPLVDKLVAEGKLGRKTGDGFYSYKK			115.6 ± 24.5 µM	18 µmol/min/mg	10 s⁻¹	90000 M⁻¹ s⁻¹		binds
3-hydroxyacyl-CoA dehydrogenase from C. elegans, Y209A mutant (enzyme, Caenorhabditis elegans, 3-hydroxyacyl-CoA dehydrogenase (cHAD), Caenorhabditis elegans, WormBase WBGene00010035, GenBank CAA80153.1; as m1 with Y209A; Made by overlapping PCR from the wild type plasmid, ligated into pEXS-CG (BamHI, EcoRI); also called cHAD Y209A; source: E. coli BL21 (DE3), purified (same procedure as the wild type); not shown: GST, C-terminal, cleaved) MFTAKCAMQNIRNVAIVGSGQMGSGIAQVTASSGFNVMLADVNKKALDRAMKAISQSVTHLSKKQKGTDKEKSDFVTLTMSRIKTCNNVSTAVADADLIIEAAIENIDLKRGIFAQIEQSCKKDSILTTNTSSFLLEDVAKGLQDKTRFGGLHFFNPVPVMKLLEVIRSDDTSDETYATLIKFGTAVGKTTVACKDSPGFIVNRLLIPAFFEAARMYERGDASMTDIDEAMKLGAGHPMGPFELADYIGLDTVKFVMDGWAAKYPEVQLFEASPLVDKLVAEGKLGRKTGDGFYSYKK			50.4 ± 11.0 µM	30 µmol/min/mg	17 s⁻¹	300000 M⁻¹ s⁻¹		binds
3-hydroxyacyl-CoA dehydrogenase from C. elegans, R204A mutant (enzyme, Caenorhabditis elegans, 3-hydroxyacyl-CoA dehydrogenase (cHAD), Caenorhabditis elegans, WormBase WBGene00010035, GenBank CAA80153.1; as m1 with R204A; Made by overlapping PCR from the wild type plasmid, ligated into pEXS-CG (BamHI, EcoRI); also called cHAD R204A; source: E. coli BL21 (DE3), purified (same procedure as the wild type); not shown: GST, C-terminal, cleaved) MFTAKCAMQNIRNVAIVGSGQMGSGIAQVTASSGFNVMLADVNKKALDRAMKAISQSVTHLSKKQKGTDKEKSDFVTLTMSRIKTCNNVSTAVADADLIIEAAIENIDLKRGIFAQIEQSCKKDSILTTNTSSFLLEDVAKGLQDKTRFGGLHFFNPVPVMKLLEVIRSDDTSDETYATLIKFGTAVGKTTVACKDSPGFIVNALLIPYFFEAARMYERGDASMTDIDEAMKLGAGHPMGPFELADYIGLDTVKFVMDGWAAKYPEVQLFEASPLVDKLVAEGKLGRKTGDGFYSYKK			83.2 ± 9.7 µM	48 µmol/min/mg	28 s⁻¹	300000 M⁻¹ s⁻¹		binds

Source: publication PMC3999109, “Dimerization Interface of 3-Hydroxyacyl-CoA Dehydrogenase Tunes the Formation of Its Catalytic Intermediate” (PLoS ONE, 2014)
